Values belong to the substance of their own block, whether it stands above or below them.
Key:
Test in all cases: protein-fragment complementation
[1] = molecular target: Vrp1 (UniProt P37370)
[2] = molecular target: Tif4631 (UniProt P39935)
[3] = molecular target: Cdc3 (UniProt P32457)
[4] = molecular target: Bmh1 (UniProt P29311)
[5] = molecular target: Hsp104 (UniProt P31539)
[6] = molecular target: Lsb3 (UniProt P43603)
[7] = molecular target: Pan1 (UniProt P32521)
[8] = molecular target: Ssb2 (UniProt P40150)
[9] = molecular target: Abp1 (UniProt P15891)
[10] = molecular target: Sfk1 (UniProt P35735)
[11] = molecular target: Sac6 (UniProt P32599)
[12] = molecular target: Syp1 (UniProt P25623)
[13] = molecular target: Sla1 (UniProt P32790)
[14] = molecular target: Osh2 (UniProt Q12451)
[15] = molecular target: Ssz1 (UniProt P38788)
[16] = molecular target: Yor1 (UniProt P53049)
[17] = molecular target: Nap1 (UniProt P25293)
[18] = molecular target: Pab1 (UniProt P04147)
[19] = molecular target: Ysc84 (UniProt P32793)
[20] = molecular target: Arc18 (UniProt Q05933)
[21] = molecular target: Myo5 (UniProt Q04439)
[22] = molecular target: Chc1 (UniProt P22137)
[23] = molecular target: Ste20 (UniProt Q03497)
[24] = molecular target: Srv2 (UniProt P17555)
[25] = molecular target: Cdc10 (UniProt P25342)
[26] = molecular target: Tdh3 (UniProt P00359)
[27] = molecular target: Bzz1 (UniProt P38822)
[28] = molecular target: Sbp1 (UniProt P10080)
[29] = molecular target: Las17 (UniProt Q12446)
[30] = molecular target: Smi1 (UniProt P32566)
[31] = molecular target: Pkh2
[32] = molecular target: Ssb1 (UniProt P11484)
[33] = molecular target: Ygl242c (UniProt P53066)
[34] = molecular target: Aim21 (UniProt P40563)
[35] = molecular target: Arc15 (UniProt P40518)
[36] = molecular target: Hek2 (UniProt P38199)
[37] = molecular target: Arc19 (UniProt P33204)
[38] = molecular target: Cmd1 (UniProt P06787)
[39] = molecular target: Ssa1 (UniProt P10591)
[40] = molecular target: Bbc1 (UniProt P47068)
[41] = molecular target: Sla2 (UniProt P33338)
[42] = molecular target: Mid2 (UniProt P36027)
[43] = molecular target: Arc40 (UniProt P38328)
[44] = molecular target: Rvs167 (UniProt P39743)
[45] = molecular target: Pfk1 (UniProt P16861)

Chain of UniProt P11484 (P11484 whole entry): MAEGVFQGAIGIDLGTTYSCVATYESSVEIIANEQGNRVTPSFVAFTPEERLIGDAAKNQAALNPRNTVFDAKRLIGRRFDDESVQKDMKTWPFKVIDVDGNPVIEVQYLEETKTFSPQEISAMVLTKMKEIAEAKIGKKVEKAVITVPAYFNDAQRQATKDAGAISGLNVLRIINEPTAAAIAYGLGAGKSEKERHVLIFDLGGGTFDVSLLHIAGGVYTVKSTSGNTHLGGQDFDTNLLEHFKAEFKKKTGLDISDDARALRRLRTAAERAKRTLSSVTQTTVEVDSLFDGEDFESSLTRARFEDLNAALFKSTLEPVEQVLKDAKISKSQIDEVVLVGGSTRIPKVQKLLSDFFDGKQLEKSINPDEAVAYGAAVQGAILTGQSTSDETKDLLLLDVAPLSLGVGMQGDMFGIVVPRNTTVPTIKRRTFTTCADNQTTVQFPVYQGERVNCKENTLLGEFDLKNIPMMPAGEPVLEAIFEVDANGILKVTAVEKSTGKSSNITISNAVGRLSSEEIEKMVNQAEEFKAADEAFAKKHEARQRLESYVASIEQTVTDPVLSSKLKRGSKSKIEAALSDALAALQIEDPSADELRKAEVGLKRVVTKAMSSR
Chain of UniProt P32790 (P32790 whole entry): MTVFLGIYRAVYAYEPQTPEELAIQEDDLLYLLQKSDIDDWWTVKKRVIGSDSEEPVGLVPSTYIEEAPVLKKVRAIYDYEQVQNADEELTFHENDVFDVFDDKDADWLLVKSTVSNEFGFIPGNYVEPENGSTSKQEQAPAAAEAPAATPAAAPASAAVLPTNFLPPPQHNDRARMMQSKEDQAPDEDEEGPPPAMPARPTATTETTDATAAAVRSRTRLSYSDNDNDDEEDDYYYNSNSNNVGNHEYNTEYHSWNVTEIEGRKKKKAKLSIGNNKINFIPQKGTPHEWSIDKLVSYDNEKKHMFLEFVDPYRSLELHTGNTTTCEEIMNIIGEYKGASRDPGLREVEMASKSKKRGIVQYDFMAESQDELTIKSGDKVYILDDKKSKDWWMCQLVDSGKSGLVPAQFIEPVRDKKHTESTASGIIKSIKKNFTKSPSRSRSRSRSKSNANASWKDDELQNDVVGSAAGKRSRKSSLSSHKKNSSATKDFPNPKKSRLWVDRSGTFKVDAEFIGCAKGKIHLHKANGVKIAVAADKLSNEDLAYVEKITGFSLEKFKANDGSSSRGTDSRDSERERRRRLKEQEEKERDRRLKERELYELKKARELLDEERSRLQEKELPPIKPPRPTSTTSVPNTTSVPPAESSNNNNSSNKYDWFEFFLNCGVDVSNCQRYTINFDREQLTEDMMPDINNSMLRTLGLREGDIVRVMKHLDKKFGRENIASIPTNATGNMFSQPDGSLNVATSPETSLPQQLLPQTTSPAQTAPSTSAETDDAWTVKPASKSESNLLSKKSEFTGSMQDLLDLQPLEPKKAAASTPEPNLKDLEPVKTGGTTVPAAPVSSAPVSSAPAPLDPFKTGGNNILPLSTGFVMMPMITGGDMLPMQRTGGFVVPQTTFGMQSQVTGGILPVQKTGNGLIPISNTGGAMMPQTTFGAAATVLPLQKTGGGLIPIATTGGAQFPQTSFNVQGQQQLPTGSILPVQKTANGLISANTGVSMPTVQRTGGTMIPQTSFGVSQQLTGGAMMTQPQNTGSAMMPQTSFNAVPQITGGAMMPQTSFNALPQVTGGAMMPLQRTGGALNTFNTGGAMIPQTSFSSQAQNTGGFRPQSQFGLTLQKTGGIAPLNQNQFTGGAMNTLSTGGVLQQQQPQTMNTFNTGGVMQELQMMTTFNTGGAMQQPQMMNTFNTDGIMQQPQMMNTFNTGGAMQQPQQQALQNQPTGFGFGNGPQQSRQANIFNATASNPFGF
Chain of UniProt P38199 (P38199 whole entry): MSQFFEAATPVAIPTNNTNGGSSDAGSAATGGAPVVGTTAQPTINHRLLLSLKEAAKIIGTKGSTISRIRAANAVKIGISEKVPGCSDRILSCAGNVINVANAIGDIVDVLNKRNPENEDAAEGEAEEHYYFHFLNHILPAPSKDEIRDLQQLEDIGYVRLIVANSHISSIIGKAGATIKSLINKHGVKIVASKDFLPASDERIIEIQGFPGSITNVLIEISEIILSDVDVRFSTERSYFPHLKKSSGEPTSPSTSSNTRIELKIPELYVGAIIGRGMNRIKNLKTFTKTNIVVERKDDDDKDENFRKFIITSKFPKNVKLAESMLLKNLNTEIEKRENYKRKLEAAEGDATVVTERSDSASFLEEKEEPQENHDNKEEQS
Chain of UniProt P33338 (P33338 whole entry): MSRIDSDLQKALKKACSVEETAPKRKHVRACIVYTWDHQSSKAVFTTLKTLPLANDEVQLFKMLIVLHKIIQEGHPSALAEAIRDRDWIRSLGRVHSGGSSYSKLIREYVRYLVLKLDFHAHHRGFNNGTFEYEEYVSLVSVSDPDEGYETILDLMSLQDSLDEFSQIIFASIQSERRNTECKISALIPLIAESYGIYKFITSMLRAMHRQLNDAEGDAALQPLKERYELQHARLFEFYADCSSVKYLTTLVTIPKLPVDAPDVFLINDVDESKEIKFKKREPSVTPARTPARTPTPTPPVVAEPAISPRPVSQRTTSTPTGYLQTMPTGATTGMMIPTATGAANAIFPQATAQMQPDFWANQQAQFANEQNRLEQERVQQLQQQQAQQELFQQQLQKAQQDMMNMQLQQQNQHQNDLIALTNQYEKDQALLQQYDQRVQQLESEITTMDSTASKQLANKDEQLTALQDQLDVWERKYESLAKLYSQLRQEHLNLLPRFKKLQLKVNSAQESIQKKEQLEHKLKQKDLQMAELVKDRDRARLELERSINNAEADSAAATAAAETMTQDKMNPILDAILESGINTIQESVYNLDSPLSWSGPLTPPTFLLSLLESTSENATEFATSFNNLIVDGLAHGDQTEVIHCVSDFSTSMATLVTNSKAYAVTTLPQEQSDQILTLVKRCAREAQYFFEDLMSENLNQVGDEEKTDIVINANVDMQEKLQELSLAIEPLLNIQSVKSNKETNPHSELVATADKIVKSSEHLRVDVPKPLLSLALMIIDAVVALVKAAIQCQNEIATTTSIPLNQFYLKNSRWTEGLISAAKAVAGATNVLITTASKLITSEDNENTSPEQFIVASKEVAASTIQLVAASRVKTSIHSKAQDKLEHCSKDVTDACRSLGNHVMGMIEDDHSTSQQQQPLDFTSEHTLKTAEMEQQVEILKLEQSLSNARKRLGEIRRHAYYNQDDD
Chain of UniProt P17555 (P17555 whole entry): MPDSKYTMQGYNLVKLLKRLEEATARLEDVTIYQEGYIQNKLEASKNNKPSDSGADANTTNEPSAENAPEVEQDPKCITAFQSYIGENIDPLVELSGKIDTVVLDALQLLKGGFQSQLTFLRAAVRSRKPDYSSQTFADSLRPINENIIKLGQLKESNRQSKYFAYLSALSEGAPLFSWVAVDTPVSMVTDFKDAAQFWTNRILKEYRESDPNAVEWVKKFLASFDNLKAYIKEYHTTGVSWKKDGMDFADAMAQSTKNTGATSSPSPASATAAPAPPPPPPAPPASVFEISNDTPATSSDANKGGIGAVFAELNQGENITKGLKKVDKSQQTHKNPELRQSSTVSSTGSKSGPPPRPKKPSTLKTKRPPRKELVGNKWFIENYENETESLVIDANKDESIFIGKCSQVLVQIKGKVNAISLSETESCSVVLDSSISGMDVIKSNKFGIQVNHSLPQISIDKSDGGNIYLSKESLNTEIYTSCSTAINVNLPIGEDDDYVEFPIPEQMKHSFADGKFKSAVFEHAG
Chain of UniProt P06787 (P06787 whole entry): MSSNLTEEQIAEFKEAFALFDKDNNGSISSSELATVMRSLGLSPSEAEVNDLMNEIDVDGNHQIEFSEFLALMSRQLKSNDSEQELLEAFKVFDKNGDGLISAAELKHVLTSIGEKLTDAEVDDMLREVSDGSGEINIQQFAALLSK
Chain of UniProt P00359 (P00359 whole entry): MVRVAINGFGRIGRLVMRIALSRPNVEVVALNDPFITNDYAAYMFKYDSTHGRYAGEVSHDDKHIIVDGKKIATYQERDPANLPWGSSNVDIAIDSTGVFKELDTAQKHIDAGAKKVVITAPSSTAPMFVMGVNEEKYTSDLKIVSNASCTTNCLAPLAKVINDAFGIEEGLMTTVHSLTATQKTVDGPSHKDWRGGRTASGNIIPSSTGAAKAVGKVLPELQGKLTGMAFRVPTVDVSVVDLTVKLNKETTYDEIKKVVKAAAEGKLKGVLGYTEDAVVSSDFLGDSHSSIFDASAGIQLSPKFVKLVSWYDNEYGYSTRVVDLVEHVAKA
Chain of UniProt P40150 (P40150 whole entry): as the sequence (P11484 whole entry) above, with E49Q, M413I, C435V, A436S counted along it
Chain of UniProt P35735 (P35735 whole entry): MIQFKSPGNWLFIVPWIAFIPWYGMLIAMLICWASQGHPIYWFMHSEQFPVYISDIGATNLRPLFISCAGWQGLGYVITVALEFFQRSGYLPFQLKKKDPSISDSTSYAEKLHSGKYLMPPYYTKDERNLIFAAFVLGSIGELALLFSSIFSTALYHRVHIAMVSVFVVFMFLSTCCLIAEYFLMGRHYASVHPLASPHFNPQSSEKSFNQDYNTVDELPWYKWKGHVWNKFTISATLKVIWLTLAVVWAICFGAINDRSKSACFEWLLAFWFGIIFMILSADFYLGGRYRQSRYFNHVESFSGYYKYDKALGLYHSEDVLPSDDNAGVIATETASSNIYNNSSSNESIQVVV
Chain of UniProt P38328 (P38328 whole entry): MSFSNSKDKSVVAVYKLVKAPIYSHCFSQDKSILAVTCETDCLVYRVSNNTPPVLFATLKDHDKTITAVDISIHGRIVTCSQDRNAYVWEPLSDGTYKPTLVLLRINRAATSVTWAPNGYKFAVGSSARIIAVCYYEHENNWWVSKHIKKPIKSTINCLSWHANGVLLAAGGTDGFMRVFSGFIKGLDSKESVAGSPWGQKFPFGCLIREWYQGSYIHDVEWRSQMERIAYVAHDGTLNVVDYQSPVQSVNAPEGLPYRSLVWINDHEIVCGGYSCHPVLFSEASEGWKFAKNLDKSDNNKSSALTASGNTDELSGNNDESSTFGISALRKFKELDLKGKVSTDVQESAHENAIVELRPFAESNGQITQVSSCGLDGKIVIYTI

Substance: Myo5 with SH3 AncA_3 (from UniProt Q04439)
- interaction score [1]: 0.862
- interaction score [2]: 0.621
- interaction score [3]: 0.466
- interaction score [4]: 0.762
- interaction score [5]: 0.724
- interaction score [6]: 0.595
- interaction score [7]: 0.876
- interaction score [8]: 0.881
- interaction score [9]: 0.865
- interaction score [10]: 0.691
- interaction score [11]: 0.775
- interaction score [12]: 0.513
- interaction score [13]: 0.51
- interaction score [14]: 0.703
- interaction score [15]: 0.776
- interaction score [16]: 0.467
- interaction score [17]: 0.444
- interaction score [18]: 0.756
- interaction score [19]: 0.455
- interaction score [20]: 0.812
- interaction score [21]: 0.869
- interaction score [22]: 0.553
- interaction score [23]: 0.424
- interaction score [24]: 0.591
- interaction score [25]: 0.404
- interaction score [27]: 0.767
- interaction score [28]: 0.772
- interaction score [29]: 0.823
- interaction score [30]: 0.514
- interaction score [31]: 0.142
- interaction score [45]: 0.807
- interaction score [32]: 0.889
- interaction score [33]: 0.881
- interaction score [34]: 0.715
- interaction score [35]: 0.837
- interaction score [36]: 0.366
- interaction score [37]: 0.724
- interaction score [38]: 0.405
- interaction score [39]: 0.849
- interaction score [40]: 0.698
- interaction score [41]: 0.59
- interaction score [42]: 0.821
- interaction score [43]: 0.902
- interaction score [44]: 0.501

Substance: Myo5 with SH3 AncC (from UniProt Q04439)
- interaction score [1]: 0.89
- interaction score [2]: 0.659
- interaction score [3]: 0.438
- interaction score [4]: 0.806
- interaction score [5]: 0.76
- interaction score [6]: 0.584
- interaction score [7]: 0.896
- interaction score [8]: 0.92
- interaction score [9]: 0.887
- interaction score [10]: 0.685
- interaction score [11]: 0.807
- interaction score [12]: 0.48
- interaction score [13]: 0.489
- interaction score [14]: 0.654
- interaction score [15]: 0.81
- interaction score [16]: 0.395
- interaction score [17]: 0.469
- interaction score [18]: 0.783
- interaction score [19]: 0.431
- interaction score [20]: 0.85
- interaction score [21]: 0.885
- interaction score [22]: 0.578
- interaction score [23]: 0.33
- interaction score [24]: 0.579
- interaction score [25]: 0.334
- interaction score [26]: 0.949
- interaction score [27]: 0.782
- interaction score [28]: 0.816
- interaction score [29]: 0.843
- interaction score [30]: 0.555
- interaction score [31]: 0.0849
- interaction score [32]: 0.93
- interaction score [33]: 0.919
- interaction score [34]: 0.727
- interaction score [35]: 0.874
- interaction score [36]: 0.421
- interaction score [37]: 0.72
- interaction score [38]: 0.412
- interaction score [39]: 0.883
- interaction score [40]: 0.712
- interaction score [41]: 0.575
- interaction score [42]: 0.846
- interaction score [43]: 0.946
- interaction score [44]: 0.404

Now from value to substance:

- interaction score [1]: 0.892
- interaction score [2]: 0.664
- interaction score [3]: 0.481
- interaction score [4]: 0.791
- interaction score [5]: 0.755
- interaction score [6]: 0.616
- interaction score [7]: 0.908
- interaction score [8]: 0.915
- interaction score [9]: 0.89
- interaction score [10]: 0.711
- interaction score [11]: 0.801
- interaction score [12]: 0.526
- interaction score [13]: 0.527
- interaction score [14]: 0.738
- interaction score [15]: 0.807
- interaction score [16]: 0.473
- interaction score [17]: 0.489
- interaction score [18]: 0.783
- interaction score [19]: 0.458
- interaction score [20]: 0.844
- interaction score [21]: 0.889
- interaction score [22]: 0.583
- interaction score [23]: 0.447
- interaction score [24]: 0.62
- interaction score [25]: 0.39
- interaction score [26]: 0.947
- interaction score [27]: 0.801
- interaction score [28]: 0.792
- interaction score [29]: 0.862
- interaction score [30]: 0.53
- interaction score [31]: 0.128
- interaction score [32]: 0.918
- interaction score [33]: 0.917
- interaction score [34]: 0.744
- interaction score [35]: 0.865
- interaction score [36]: 0.391
- interaction score [37]: 0.754
- interaction score [38]: 0.216
- interaction score [39]: 0.885
- interaction score [40]: 0.722
- interaction score [41]: 0.633
- interaction score [42]: 0.848
- interaction score [43]: 0.937
- interaction score [44]: 0.525
Substance: Myo5 with SH3 AncA (from UniProt Q04439)

- interaction score [1]: 0.855
- interaction score [2]: 0.687
- interaction score [3]: 0.353
- interaction score [4]: 0.838
- interaction score [5]: 0.77
- interaction score [6]: 0.487
- interaction score [7]: 0.87
- interaction score [8]: 0.938
- interaction score [9]: 0.878
- interaction score [10]: 0.545
- interaction score [11]: 0.793
- interaction score [12]: 0.338
- interaction score [13]: 0.309
- interaction score [14]: 0.352
- interaction score [15]: 0.848
- interaction score [16]: 0.254
- interaction score [17]: 0.463
- interaction score [18]: 0.805
- interaction score [19]: 0.318
- interaction score [20]: 0.825
- interaction score [21]: 0.862
- interaction score [22]: 0.589
- interaction score [23]: 0.718
- interaction score [24]: 0.522
- interaction score [25]: 0.31
- interaction score [26]: 0.968
- interaction score [27]: 0.701
- interaction score [28]: 0.83
- interaction score [29]: 0.785
- interaction score [30]: 0.551
- interaction score [31]: 0.0507
- interaction score [45]: 0.862
- interaction score [32]: 0.935
- interaction score [33]: 0.949
- interaction score [34]: 0.647
- interaction score [35]: 0.887
- interaction score [36]: 0.351
- interaction score [37]: 0.655
- interaction score [38]: 0.278
- interaction score [39]: 0.903
- interaction score [40]: 0.562
- interaction score [41]: 0.473
- interaction score [42]: 0.827
- interaction score [43]: 0.952
- interaction score [44]: 0.273
Substance: Myo5 with SH3 AncD (from UniProt Q04439)

- interaction score [1]: 0.916
- interaction score [2]: 0.671
- interaction score [3]: 0.493
- interaction score [4]: 0.831
- interaction score [5]: 0.762
- interaction score [6]: 0.639
- interaction score [7]: 0.926
- interaction score [8]: 0.932
- interaction score [9]: 0.903
- interaction score [10]: 0.723
- interaction score [11]: 0.838
- interaction score [12]: 0.572
- interaction score [13]: 0.551
- interaction score [14]: 0.768
- interaction score [15]: 0.841
- interaction score [16]: 0.521
- interaction score [17]: 0.509
- interaction score [18]: 0.794
- interaction score [19]: 0.514
- interaction score [21]: 0.915
- interaction score [22]: 0.603
- interaction score [23]: 0.446
- interaction score [24]: 0.658
- interaction score [25]: 0.423
- interaction score [26]: 0.97
- interaction score [27]: 0.814
- interaction score [28]: 0.834
- interaction score [29]: 0.875
- interaction score [30]: 0.568
- interaction score [31]: 0.124
- interaction score [45]: 0.877
- interaction score [32]: 0.944
- interaction score [33]: 0.948
- interaction score [34]: 0.758
- interaction score [35]: 0.902
- interaction score [36]: 0.412
- interaction score [37]: 0.769
- interaction score [38]: 0.319
- interaction score [39]: 0.908
- interaction score [40]: 0.758
- interaction score [41]: 0.65
- interaction score [42]: 0.866
- interaction score [43]: 0.968
- interaction score [44]: 0.539
Substance: Myo5 with SH3 optMyo5 (from UniProt Q04439)

— doi:10.1101/2023.03.09.531510
